# Assay results published in patent EP0311107A2, “Anti-HIV active 3'-fluoro-purine-2',3'-dideoxyribosides” (priority 1987, dated 1989).
# How the values were obtained:
# [1] = substrate: Nc1nc(N)c2ncn([C@H]3C[C@@H](O)[C@@H](CO)O3)c2n1; assay: Substrate kinetics for deamination by adenosine deaminase; format: biochemical; conditions: other: beef intestine adenosine deaminase
# Description: (§1) All four ddDAPR analogues were examined for their sus­ceptibility to deamination by beef intestine adenosine de­ aminase (ADA).
# [2] = substrate: Nc1nc(N)c2ncn([C@H]3C[C@H](F)[C@@H](CO)O3)c2n1; assay: as above; format: biochemical; conditions: other: beef intestine adenosine deaminase
# Description: as §1
protein,measurement,setting,value
"beef intestine adenosine deaminase (ADA) (Bos taurus) (protein, Kinetic properties of beef intestine adenosine deaminase for 2,6-diaminopurine 2′,3′-dideoxynucleoside analogues; purchased Boehringer Mannheim, Mannheim, West Germany; host or cells: beef intestine (tissue-derived enzyme)) MAQTPAFNKPKVELHVHLDGAIKPETILYYGRKRGIALPADTPEELQNIIGMDKPLSLPEFLAKFDYYMPAIAGCREAVKRIAYEFVEMKAKDGVVYVEVRYSPHLLANSKVEPIPWNQAEGDLTPDEVVSLVNQGLQEGERDFGVKVRSILCCMRHQPSWSSEVVELCKKYREQTVVAIDLAGDETIEGSSLFPGHVKAYAEAVKSGVHRTVHAGEVGSANVVKEAVDTLKTERLGHGYHTLEDATLYNRLRQENMHFEVCPWSSYLTGAWKPDTEHPVVRFKNDQVNYSLNTDDPLIFKSTLDTDYQMTKNEMGFTEEEFKRLNINAAKSSFLPEDEKKELLDLLYKAYGMPSPASAEQCL",Km,[1],74 µM
same,Km,[2],148 µM
same,Vmax,[2],31 µmole/mg protein/min
